Assay results as given in patent publication US20250215092A1 (ZHEJIANG NANOMAB TECHNOLOGY CENTER, published 2025).

Legend:
[1] = target: T1, Mouse EGFR Protein, His Tag (Acro, Cat #EGR-M5224) (mouse, UniProt Q01279 25-647); assay: ELISA, coated antigen 1 ug/mL, antibody 50 nM
T1 construct: extracellular domain; Bought protein; not shown: His tag
Procedure: (§1) ELISA was used to identify the binding of VHH-IgG4 antibodies to the extracellular domains of mouse EGFR, monkey EGFR, and human EGFR proteins. The detection steps were as follows: Mouse EGFR Protein, His Tag (Acro, Cat #EGR-M5224) and Rhesus macaque EGFR Protein, His Tag (Acro, Cat #EGR-C52H1) were diluted to 1 μg/mL with phosphate buffer, and 100 μL of each dilution was added to a 96-well ELISA plate and coated overnight at 4° C. The next day, the plates were washed twice with PBST (containing 0.5% TWEEN-20) and then blocked with 3% BSA at 37° C. for 1.5 h, followed by two washes with PBST. VHH-IgG4 antibodies were diluted to 50 nM, and 100 μL of the dilution was added to each well and incubated at 37° C. for 1 h. The plates were then washed three times with PBST, and 100 μL of HRP-labeled goat anti-human IgG Fc antibody (1:10000, Bethyl) was added to each well and incubated at 37° C. for another 40 min. After washing the plates four times with PBST, 100 μL of TMB substrate was added to each well, and the reaction was allowed to proceed for 3-5 min. The reaction was stopped by adding 100 μL of 3N hydrochloric acid per well. After stopping the reaction, the optical density at 450/650 nm was measured using a Tecan microplate reader.

[2] = target: T2, Rhesus macaque EGFR Protein, His Tag (Acro, Cat #EGR-C52H1) (rhesus macaque, UniProt P55245 25-645); assay: ELISA, coated antigen 1 ug/mL, antibody 50 nM
T2 construct: extracellular domain; Bought protein; also called Monkey EGFR; not shown: His tag
Procedure: as §1

[3] = target: T3, human EGFR.His antigen (Acro, Cat #EGR-H522a) (human, UniProt P00533 25-645); assay: SPR, antibody captured on protein A, EGFR.His in flow
T3 construct: extracellular domain; Bought protein; also called EGFR his tag protein; full-length EGFR extracellular domain protein; not shown: His tag
Procedure: The binding kinetics and affinity of candidate antibody to human EGFR.His antigen were determined using surface plasmon resonance (SPR). The purified antibody was flowed through the sensor chips pre-immobilized with protein A, and the antibody was captured by protein A. Then five different concentrations of EGFR.His protein were used as the mobile phase, and the binding time and dissociation time were […], respectively. The binding rate (kon), dissociation rate (koff), and equilibrium constant (kD) were analyzed using Biacore Evaluation Software 2.0 (GE). EC225, an antibody that binds to region III of human EGFR, was selected as a positive control (sequence source https.//go.drugbank.com/drugs/DB00002).

[4] = target: T4, EGFR-D1D2 (L25-A310, P00533-1 (uniprot)) his tag antigen (human, UniProt P00533 25-310); assay: ELISA: EGFR-D1D2 his tag antigen coated at 0.5 µg/mL, antibody at 2000, 200, 20, 2 nM, HRP goat anti-human IgG Fc, OD450
T4 construct: range 25-310; also called I+II domain protein; EGFR-D1D2 protein; not shown: His tag
Procedure: (§2) (2) Protein Binding Epitope Analysis: ELISA was used to determine the binding of VHH-IgG4 antibody to each domain of EGFR extracellular protein. Briefly, EGFR his tag protein, and EGFR-V3-his tag antigen protein were diluted to 1 μg/mL, EGFR-D1D2 (L25-A310, P00533-1 (uniprot)), and EGFR-D4 (F481-S645, P00533-1 (uniprot)) his tag antigen were diluted to 0.5 μg/mL, and each well of an ELISA plate was coated with […] antigen and incubated overnight at 4° C. The next day, the plates were washed twice with PBST (added with 0.5% TWEEN-20), then blocked with 3% BSA at 37° C. for 1.5 h, and then washed twice with PBST. Then, the antibody to be tested was diluted to 50 nM, 5 nM, 0.5 nM, 0.05 nM, and added to the wells coated with EGFR his tag protein or EGFR-V3-his tag antigen at 100 µL/well, respectively. The antibody was diluted to 2000 nM, 200 nM, 20 nM, 2 nM, and added to the wells coated with EGFR his tag protein or EGFR-V3-his tag antigen at 100 µL/well, respectively. The ELISA plates were incubated at 37° C. for 1 h. The plates were then washed three times with PBST, and then 100 μL HRP labeled Goat anti human IgG Fc antibody (1:10000, Bethyl) was added into each well, and incubated at 37° C. for another 40 min. After washing the plates four times with PBST, 100 μL of TMB substrate was added to each well, and the reaction was allowed to proceed for 3-5 min. The reaction was stopped by adding 100 μL of 3N hydrochloric acid per well. After stopping the reaction, the optical density at 450/650 nm was measured using a Tecan microplate reader.

[5] = target: T5, Region III of EGFR expressed on HEK293T cells (human, UniProt P00533); assay: flow cytometry on HEK293T cells expressing EGFR region III, anti-human IgG PE, MFI, curve fit; unit from the concentration axis and paragraph 62 [table]
T5 construct: also called HEK293T EGFR-III cells; stably transformed cell line 293T overexpressing EGFR III region protein
Procedure: HEK293T cells that express Region III of EGFR (i.e., HEK293T […] cells) were plated in a 96-well plate with 3×10⁵ cells/well, and then HEK293T […] cells were incubated with gradient diluted VHH-IgG4 antibody. After incubation for half an hour, anti-human IgG PE (Jackson Immuno Research, Code: 109-117-008, Lot:145501) as the secondary antibody for detection was added for incubation, and then CytoFLEX flow cytometer was used for detection. The EC50 of the antibody was calculated by curve fitting with Graphprism8.0 software. Isotype 1 in the figure is a negative control, and its amino acid sequence is shown as SEQ ID NO: 2 in CN106046152A.

[6] = target: T6, EGFR on SKOV3 and Aspc-1 tumor cells (human, UniProt P00533); assay: flow cytometry on SKOV3 tumor cells, anti-human IgG PE, MFI, curve fit; unit from the concentration axis and paragraph 62; the curve still rises at the highest concentration (MFI about 9700 at about 250 nM) [table]
T6 construct: endogenous, on the cell surface; the cell line is named under assay; also called tumor cell EGFR
Procedure: (§3) Two kinds of tumor cells, SKOV3 and Aspc-1, expressing EGFR were respectively plated in 96 well plates, with 3×10⁵ cells per well, and then the tumor cells were incubated with gradient diluted VHH-IgG4 antibody. After incubation on ice for half an hour, anti human IgG PE (Jackson Immuno Research, Code: 109-117-008, Lot:145501) was added for incubation, and then CytoFLEX flow cytometry was used for detection. The EC50 of the antibody was calculated by curve fitting.

[7] = target: T6, EGFR on SKOV3 and Aspc-1 tumor cells; assay: flow cytometry on Aspc-1 tumor cells, anti-human IgG PE, MFI, curve fit; unit from the concentration axis and paragraph 62; the curve still rises at the highest concentration (MFI about 9000 at about 250 nM) [table]
Procedure: as §3

[8] = target: T6, EGFR on SKOV3 and Aspc-1 tumor cells; assay: flow cytometry on SKOV3 tumor cells, anti-human IgG PE, MFI, curve fit; unit from the concentration axis and paragraph 62 [table]
Procedure: as §3

[9] = target: T6, EGFR on SKOV3 and Aspc-1 tumor cells; assay: flow cytometry on Aspc-1 tumor cells, anti-human IgG PE, MFI, curve fit; unit from the concentration axis and paragraph 62; no upper plateau within the range shown [table]
Procedure: as §3

[10] = target: T3, human EGFR.His antigen (Acro, Cat …); assay: SPR, human EGFR.His
[11] = target: T3, human EGFR.His antigen (Acro, Cat …); assay: ELISA: EGFR his tag protein coated at 1 µg/mL, antibody at 50, 5, 0.5, 0.05 nM, HRP goat anti-human IgG Fc, OD450
Procedure: as §2, with “After washing the plates four times with PBST, 100 μL of TMB substrate was added to each well, and the reaction was allowed to proceed for 3-5 min. The reaction was stopped by adding 100 μL of 3N hydrochloric acid per well.” left out

[12] = target: T7, EGFR-D4 (F481-S645, P00533-1 (uniprot)) his tag antigen (human, UniProt P00533 481-645); assay: ELISA: EGFR-D4 his tag antigen coated at 0.5 µg/mL, antibody at 2000, 200, 20, 2 nM, HRP goat anti-human IgG Fc, OD450
T7 construct: range 481-645; also called IV domain protein; EGFR-D4 protein; not shown: His tag
Procedure: as §2

OD450 [1] [OD450] | OD450 [2] [OD450] | Kd [3] [nM] | koff [3] [s⁻¹] | kon [3] [M⁻¹ s⁻¹] | binding result [4] | EC50 [5] [nM] | EC50 [6] [nM] | EC50 [7] [nM] | EC50 [8] [nM] | EC50 [9] [nM] | Kd [10] [nM] | koff [10] [s⁻¹] | kon [10] [M⁻¹ s⁻¹] | binding result [11] | binding result [12] | Binder
0.76 | 3.3 | 0.206 | 1.2e-05 | 57900 | no binding (tested: 2000 nM) | 0.32 | 74 | 58 |  |  |  |  |  |  |  | E001 VHH-IgG4 antibody (antibody, V domains shown, not shown: a dimerising Fc or GST) VH: EVQLVESGGGLVQPGGSLRLSCTPSGSGFTIQAMTWYRQAPGKQRELVAIIHQGGSTDYSDSVRGRFTISRDNAKTAWYLQMNNLKPEDTAVYYCNVVPPLRVWGQGTQVTVSS
3.13 | 3.3 | 6.82 | 0.000255 | 37400 | no binding (tested: 2000 nM) | 0.5 |  |  | 11 | 12 |  |  |  |  |  | E006 VHH-IgG4 antibody (antibody, V domains shown, not shown: a dimerising Fc or GST) VH: EVQLVESGGGLVQPGGSLRLSCTASGFTFDTYTTSWERQAPGKEREMVAVLATTGGKPYYVESVKGRFTISRDASETAVTLQMNNLKPEDTAVYYCKATSRSPVNPHNYSGQGTLVTVSS
 |  |  |  |  |  |  |  |  |  |  | 15 | 0.0004 | 27000 |  |  | E006.8 (VHH, Humanized VHH; also called humanized variant of E006) VHH: EVQLVESGGGLVQPGGSLRLSCTASGFTFDTYTTSWERQAPGKEREMVSVLATTGGKPYYVESVKGRFTISRDASENAVTLQMNSLRAEDTAVYYCKATSRSPVNPHNYSGQGTLVTVSS
0.08 | 3.36 |  |  |  | binds |  |  |  |  |  |  |  |  | binds | no binding (tested: 2000 nM) | E009 VHH-IgG4 antibody (antibody, V domains shown, not shown: a dimerising Fc or GST) VH: QVQLVESGGGLVQPGGSLRLSCEASGRIDIIFTMGWYRQTPGNEREFVASVTNYNAKYADSVKGRFTISRENTENTAYLQMNSLKPEDTAIYVCHLNYASDYTEYDYYGQGTQVTVSS
